The values that follow come from PMC12339479.

For this test, the target named is Chicken ACE2-hFc (soluble chicken ACE2 residues 18-740 fused to human IgG1 Fc) (chicken (Gallus gallus)). Kind of test: SPR. A general note: In SPR one partner is held on a chip, and binding of the other changes the refractive index at the surface.
Consider “SARS-CoV-2 Omicron BA.2 RBD monomer (from UniProt P0DTC2) (domain or fragment)”, for which the dissociation constant Kd (in general, the free concentration of one partner at which half of the binding sites on the other are occupied at equilibrium, for simple one-to-one binding) was 0.334 µM and the kon (as a rule, the second-order rate constant of association) stood at 258000 M⁻¹ s⁻¹.
Turning to “SARS-CoV-2 Alpha (B.1.1.7) RBD monomer (from UniProt P0DTC2) (domain or fragment)”, the Kd is 409 µM and the kon is 300 M⁻¹ s⁻¹.
“SARS-CoV-2 Gamma (P.1) RBD monomer (from UniProt P0DTC2) (domain or fragment)” showed a Kd of 44.7 µM and a kon of 4200 M⁻¹ s⁻¹.
For “SARS-CoV-2 Omicron BA.5 RBD monomer (from UniProt P0DTC2) (domain or fragment)”, the Kd came to 0.375 µM. That is a sub-micromolar value.
